The Immune Epitope Database (IEDB)
pIC50: −log10 of the molar value.

How the values were obtained:
Experiment in all cases: IEDB peptide-MHC binding, purified MHC/competitive/radioactivity; ≥ and ≤ were set here for values at or beyond the usual limits of such assays
[1] = target: HLA-A*02:03
[2] = target: HLA-A*68:02
[3] = target: HLA-A*02:02
[4] = target: HLA-A*02:01
[5] = target: HLA-A*02:06
[6] = source organism: Hepacivirus hominis
[7] = source organism: Vaccinia virus WR
[8] = source organism: Influenza A virus
[9] = source organism: Mammarenavirus lassaense

Sequence: TLLGCWSFV
- pIC50 [1, 6]: 7.39
- pIC50 [2, 6]: 5.75
- pIC50 [3, 6]: 7.06
- pIC50 [4, 6]: 7.52
- pIC50 [5, 6]: 6.87

Sequence: TLIQYRQQL
- pIC50 [1, 7]: 6.39
- pIC50 [2, 7]: 6.14
- pIC50 [3, 7]: 6.89
- pIC50 [4, 7]: 6.87
- pIC50 [5, 7]: 5.73

Sequence: NIFMTLVPV
- pIC50 [1, 7]: 8.19
- pIC50 [2, 7]: 8.59
- pIC50 [3, 7]: 7.07
- pIC50 [4, 7]: 7.96
- pIC50 [5, 7]: 6.64

Sequence: AITLVVISVI
- pIC50 [1, 7]: 6.10
- pIC50 [2, 7]: 5.62
- pIC50 [3, 7]: 6.39
- pIC50 [4, 7]: 6.31
- pIC50 [5, 7]: 5.70

Sequence: KIEDLINQLV
- pIC50 [1, 7]: 7.15
- pIC50 [2, 7]: 5.98
- pIC50 [3, 7]: 7.06
- pIC50 [4, 7]: 6.54
- pIC50 [5, 7]: 6.84

Sequence: YQSFLFWFL
- pIC50 [1, 7]: 8.60
- pIC50 [2, 7]: 7.06
- pIC50 [3, 7]: 9.42
- pIC50 [4, 7]: 9.12
- pIC50 [5, 7]: 7.40

Sequence: PIIYSKAGNI
- pIC50 [1, 7]: 6.86
- pIC50 [2, 7]: 5.51
- pIC50 [3, 7]: 6.18
- pIC50 [4, 7]: 6.06
- pIC50 [5, 7]: 6.14

Sequence: IIMAINVFT
- pIC50 [1, 7]: 6.74
- pIC50 [2, 7]: 7.08
- pIC50 [3, 7]: 7.41
- pIC50 [4, 7]: 7.57
- pIC50 [5, 7]: 8.00

Sequence: ILLILSCIFA
- pIC50 [1, 7]: 6.51
- pIC50 [2, 7]: 5.56
- pIC50 [3, 7]: 6.35
- pIC50 [4, 7]: 7.68
- pIC50 [5, 7]: 6.31

Sequence: YIMRVMANNV
- pIC50 [1, 7]: 8.70
- pIC50 [2, 7]: 7.38
- pIC50 [3, 7]: 7.64
- pIC50 [4, 7]: 7.31
- pIC50 [5, 7]: 7.85

Sequence: VLIAGIILLI
- pIC50 [1, 7]: 7.46
- pIC50 [2, 7]: 7.48
- pIC50 [3, 7]: 8.06
- pIC50 [4, 7]: 7.05
- pIC50 [5, 7]: 5.99

Sequence: FITVLTSVDI
- pIC50 [1, 7]: 6.63
- pIC50 [2, 7]: 5.90
- pIC50 [3, 7]: 5.85
- pIC50 [4, 7]: 6.22
- pIC50 [5, 7]: 5.90

Sequence: GIYNCCESNI
- pIC50 [1, 7]: 6.85
- pIC50 [2, 7]: 5.42
- pIC50 [3, 7]: 7.17
- pIC50 [4, 7]: 6.48
- pIC50 [5, 7]: 6.54

Sequence: VTFINDYANL
- pIC50 [1, 7]: 6.61
- pIC50 [2, 7]: 6.28
- pIC50 [3, 7]: 7.00
- pIC50 [4, 7]: 5.61
- pIC50 [5, 7]: 6.83

Sequence: RTFFLTQGA
- pIC50 [1, 8]: 6.80
- pIC50 [2, 8]: 6.29
- pIC50 [3, 8]: 5.70
- pIC50 [4, 8]: 5.51
- pIC50 [5, 8]: 5.70

Sequence: CVSNLDISSV
- pIC50 [1, 7]: 8.64
- pIC50 [2, 7]: 5.99
- pIC50 [3, 7]: 7.28
- pIC50 [4, 7]: 5.83
- pIC50 [5, 7]: 7.32

Sequence: SIINHKFCNL
- pIC50 [1, 9]: 6.25
- pIC50 [2, 9]: 6.04
- pIC50 [3, 9]: 6.61
- pIC50 [4, 9]: 5.67
- pIC50 [5, 9]: 5.99

Sequence: SVIFYFISI
- pIC50 [1, 7]: 7.12
- pIC50 [2, 7]: 8.77
- pIC50 [3, 7]: 6.81
- pIC50 [4, 7]: 7.10
- pIC50 [5, 7]: 9.77

Sequence: KAKQLCYCPA
- pIC50 [1, 7]: 6.73
- pIC50 [2, 7]: 5.61
- pIC50 [3, 7]: 6.51
- pIC50 [4, 7]: 5.83
- pIC50 [5, 7]: 6.47

Sequence: IINSVSIILA
- pIC50 [1, 7]: 6.05
- pIC50 [2, 7]: 6.81
- pIC50 [3, 7]: 6.14
- pIC50 [4, 7]: 6.05
- pIC50 [5, 7]: 6.02

Sequence: VIKLVKSLV
- pIC50 [1, 7]: 6.90
- pIC50 [2, 7]: 6.19
- pIC50 [3, 7]: 5.99
- pIC50 [4, 7]: 6.06
- pIC50 [5, 7]: 5.39

Sequence: FTKDGKLDDT
- pIC50 [1, 7]: 6.73
- pIC50 [2, 7]: 5.39
- pIC50 [3, 7]: 6.84
- pIC50 [4, 7]: 6.01
- pIC50 [5, 7]: 6.05

Sequence: ITTLLNETA
- pIC50 [1, 7]: 6.03
- pIC50 [2, 7]: 7.15
- pIC50 [3, 7]: 6.38
- pIC50 [4, 7]: 6.20
- pIC50 [5, 7]: 6.22

Sequence: EVERLMELPV
- pIC50 [1, 7]: 5.84
- pIC50 [2, 7]: 5.91
- pIC50 [3, 7]: 5.61
- pIC50 [4, 7]: 5.70
- pIC50 [5, 7]: 5.44

Sequence: YVHEGVSYEV
- pIC50 [1, 7]: 7.15
- pIC50 [2, 7]: 7.85
- pIC50 [3, 7]: 7.89
- pIC50 [4, 7]: 7.08
- pIC50 [5, 7]: 8.04

Sequence: WLKDSAIMV
- pIC50 [1, 7]: 7.55
- pIC50 [2, 7]: 6.00
- pIC50 [3, 7]: 6.72
- pIC50 [4, 7]: 6.49
- pIC50 [5, 7]: 5.64

Sequence: LISLINSLV
- pIC50 [1, 7]: 9.32
- pIC50 [2, 7]: 7.17
- pIC50 [3, 7]: 9.32
- pIC50 [4, 7]: 7.82
- pIC50 [5, 7]: 7.14

Sequence: FLAFVVFLLV
- pIC50 ([1]; source organism: SARS-CoV1): 6.68
- pIC50 ([2]; source organism: SARS-CoV1): 5.36
- pIC50 ([3]; source organism: SARS-CoV1): 8.62
- pIC50 ([4]; source organism: SARS-CoV1): 7.11
- pIC50 ([5]; source organism: SARS-CoV1): 5.53

Sequence: CTINVNSLAL
- pIC50 [1, 7]: 5.98
- pIC50 [2, 7]: 6.29
- pIC50 [3, 7]: 6.31
- pIC50 [4, 7]: 5.98
- pIC50 [5, 7]: 6.67
